Molecular target: SITS-labeled human αB-crystallin wild type (human) (UniProt P02511)
Experiment: FRET or BRET; in vitro subunit exchange: equal amounts (0.4 mg/ml) of SITS-labeled αB-wt (donor) and LYI-labeled αA-wt or mutant (acceptor) mixed at 37°C in 20 mM MOPS, 100 mM NaCl, pH 7.9; excitation 336 nm, rate constant k from the increase of acceptor emission at 515 nm, fit Ft/F0 = A1+A2e^-kt

SITS-labeled human αB-crystallin wild type (human), sequence (P02511 whole entry): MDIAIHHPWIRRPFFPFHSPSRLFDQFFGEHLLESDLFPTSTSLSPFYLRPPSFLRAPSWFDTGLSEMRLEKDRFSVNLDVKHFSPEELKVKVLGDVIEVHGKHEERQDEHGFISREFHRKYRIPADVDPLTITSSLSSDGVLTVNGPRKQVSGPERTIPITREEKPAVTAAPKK
LYI-labeled human αA-crystallin wild type, sequence (P02489 whole entry): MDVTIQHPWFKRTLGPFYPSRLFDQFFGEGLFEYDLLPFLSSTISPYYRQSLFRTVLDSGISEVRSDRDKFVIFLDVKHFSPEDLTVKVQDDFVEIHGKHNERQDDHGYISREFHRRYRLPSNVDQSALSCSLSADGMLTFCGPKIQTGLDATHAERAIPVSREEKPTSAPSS

LYI-labeled human αA-crystallin wild type (from UniProt P02489 1-173) (natural protein)
k (rate constant of subunit exchange): 0.000657 S^-1

Reference: article PMC3275625
